Reference: patent US20240277803A1, “NME INHIBITORS AND METHODS OF USING NME INHIBITORS” (Minerva Biotechnologies Corporation, priority 2013, published 2024)

Assays:
[1] = molecular target: T1, MUC1* extra cellular domain peptide (Homo sapiens, UniProt P15941); assay: gold nanoparticle binding assay, NME7 and MUC1* peptide (FIG. 7); settings: protein added free in solution
T1 sequence (P15941 with tags, fused parts or gaps): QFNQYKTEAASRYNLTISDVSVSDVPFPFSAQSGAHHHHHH
Method: Gold nanoparticles of a diameter of 30.0 nm were coated with an NTA-SAM surface according to Thompson et al. (ACS Appl. Mater. Interfaces, 2011, 3 (8), pp 2979-2987). The NTA-SAM coated gold nanoparticles were then activated with an equal volume of 180 uM NiSO4, incubated for 10 min at room temperature, washed, and resuspended in a 10 mM phosphate buffer ([…]). The gold nanoparticles were then loaded with PSMGER N-10 peptide ([…] (SEQ ID NO:155)) at 0.5 uM final concentration, and incubated at room temperature for 10 min. Recombinant NME7-AB protein expressed and purified from E. coli was added free in solution at the concentrations indicated. When particle-immobilized proteins bind to each other, or simultaneously bind to two different peptides on two different particles, the particle solution color changes from pink/red to purple/blue. If the protein added free in solution causes particle aggregation, it is strong evidence that the free protein dimerizes the cognate peptide, since binding to a single peptide would not induce two or more particles to be brought into close proximity to each other.
The NME7-AB is added free in solution at the concentrations indicated. Solution color change from pink to purple/blue from particle aggregation indicates binding between the MUC1* peptide on the particles and NME7 free in solution. […] Particle aggregation, indicating NME7 can simultaneously bind to two peptides is observed. […] The T47D breast cancer cell line Lysate, which contains native NME7 turns noticeably purple also.

Human stem cells (iPS) = assay: human iPS stem cell culture in NME7-AB or NM23-H1 dimers; format: cell-based
Method: Testing recombinant NME7 for ability to maintain pluripotency and inhibit differentiation. A soluble variant of NME7, NME7-AB, was generated and purified. Human stem cells (iPS cat #SC101a-1, System Biosciences) were grown per the manufacturer's directions in 4 ng/ml bFGF over a layer of mouse fibroblast feeder cells for four passages. These source stem cells were then plated into 6-well cell culture plates (Vita™, Thermo Fisher) that had been coated with 12.5 ug/well of a monoclonal anti-MUC1* antibody, MN-C3. Cells were plated at a density of 300,000 cells per well. The base media was Minimal Stem Cell Media consisting of: 400 ml DME/F12/GlutaMAX I (Invitrogen #10565-018), 100 ml Knockout Serum Replacement (KO-SR, Invitrogen #10828-028), 5 ml 100×MEM Non-essential Amino Acid Solution (Invitrogen#11140-050) and 0.9 ml (0.1 mM) β-mercaptoethanol (55 mM stock, Invitrogen #21985-023). The base media can be any media. In a preferred embodiment, the base media is free of other growth factors and cytokines. To the base media was added either 8 nM of NME7-AB or 8 nM NM23-H1 refolded and purified as stable dimers. Media was changed every 48 hours and due to accelerated growth had to be harvested and passaged at Day 3 post-plating. FIGS. 9 and 10 document the day by day comparison of growth in NM23-H1 dimers to growth in NME7 monomers. […] Cell counts at the first harvest verified that culture in NME7 produced 1.4-times more cells than culture in NM23-H1 dimers.

T47D breast cancer cells [2] = assay: RT-PCR of T47D cells cultured in 2i inhibitors and/or NME7-AB (FIGS. 48, 49); format: cell-based
Method: 2i inhibitors, which are small molecule inhibitors of GSK3-beta and MEK of the MAP kinase signaling pathway, have been reported (Silva J et al, 2008) to revert mouse primed stem cells to the naïve state. We wondered whether these inhibitors could also revert human cancer cells to the cancer stem cell state. T47D breast cancer cells were cultured for 10 days in a serum-free minimal base media with the 2i inhibitors added or in the same base media with human recombinant NME7-AB added, or both NME7-AB and 2i. […] The relative potency of inducing the cancer stem cell markers was NME7>NME7+2i>2i (FIG. 48).

T47D breast cancer cells [3] = assay: engraftment and growth of T47D cells mixed with NME7-AB in mice (FIG. 51); format: in vivo, Immune-compromised mice
Text: For example, some cancer cells are very difficult to engraft in animals. We increased the engraftment rate of cancer cells by several fold by injecting the animal with human NME7 or NME7-AB. Immune-compromised mice were implanted with T47D breast cancer cells that were mixed 50/50 vol/vol with either Matrigel or NME7-AB. After 10 days, the mice that had received the NME7 mixed cells were additionally injected with NME7-AB every day (FIG. 51). […] Engraftment rates, decreased numbers of required cells and a faster tumor growth rate resulted when NME7-AB was mixed with the cancer cells when implanted and when the mice were injected every 24 or 48 hours after implantation. A range of ratios of cancer cells to NME7 or the injection schedule of NME7 is expected to vary from one mouse strain to another and from one tumor type to another. In an improvement over this method, animals that are transgenic for human NME7 or NME7-AB greatly increase engraftment rates of cancer cells and thus, decrease the number of cells required to develop into a tumor in an animal. This allows growth of primary patient cancer cells in an animal expressing human NME7 or NME7-AB.

B1: NME7-AB: recombinant human NME7 of NDPK A and B domains without the DM10 leader sequence, ~33 kDa (SEQ ID NO:39) (protein, listed as Homo sapiens)
chain: MEKTLALIKPDAISKAGEIIEIINKAGFTITKLKMMMLSRKEALDFHVDHQSRPFFNELIQFITTGPIIAMEILRDDAICEWKRLLGPANSGVARTDASESIRALFGTDGIRNAAHGPDSFASAAREMELFFPSSGGCGPANTAKFTNCTCCIVKPHAVSEGLLGKILMAIRDAGFEISAMQMFNMDRVNVEEFYEVYKGVVTEYHDMVTEMYSGPCVAMEIQQNNATKTFREFCGPADPEIARHLRPGTLRAIFGKTKIQNAVHCTDLPEDGLLEVQYFFKILDN
modifications: Human NME7-AB
B1 was tested, and the “binding to MUC1* peptide on nanoparticles (color change pink to purple/blue)” value [1] was “turned purple almost immediately”, the “binding to MUC1* peptide on nanoparticles (color change pink to purple/blue)” value ([1]; listed as NME7) was “has two binding sites for the MUC1* peptide” and the “stem cell growth, pluripotency and differentiation” value (Human stem cells (iPS); 8 nM in minimal media over MN-C3 surface) was “fully supported human stem cell growth”. The “cells produced relative to culture in NM23-H1 dimers (cell counts at first harvest)” value (Human stem cells (iPS); 8 nM, Day 3 post-plating) was 1.4 times, the “expression of CDH1, CXCR4, OCT4, SOX2 and NANOG” value (T47D breast cancer cells [2]; T47D cultured for 10 days in serum-free minimal base media, FIG. 48) was “greatly up-regulated” and the “expression of BRD4, JMJD6, MBD3 and CHD4” value (T47D breast cancer cells [2]; T47D, FIG. 49) was “similarly down-regulated”. The “engraftment rate of cancer cells” value (T47D breast cancer cells [3]; animal injected with human NME7 or NME7-AB) was “several fold” and the “tumor size and growth rate” value (T47D breast cancer cells [3]; cells mixed 50/50 vol/vol with NME7-AB, then injected every day, tumor promotion) was “larger tumors that grew at an accelerated rate”.
